Measured values as given in patent CN115368455A.

Molecular target: SIRPg (UniProt Q9P1W8)
Assay: SPR (BIAcore X-100); ratio of the affinity for SIRPa to that for SIRPg

Sequence of UniProt Q9P1W8 (Q9P1W8 29-360 limits assumed): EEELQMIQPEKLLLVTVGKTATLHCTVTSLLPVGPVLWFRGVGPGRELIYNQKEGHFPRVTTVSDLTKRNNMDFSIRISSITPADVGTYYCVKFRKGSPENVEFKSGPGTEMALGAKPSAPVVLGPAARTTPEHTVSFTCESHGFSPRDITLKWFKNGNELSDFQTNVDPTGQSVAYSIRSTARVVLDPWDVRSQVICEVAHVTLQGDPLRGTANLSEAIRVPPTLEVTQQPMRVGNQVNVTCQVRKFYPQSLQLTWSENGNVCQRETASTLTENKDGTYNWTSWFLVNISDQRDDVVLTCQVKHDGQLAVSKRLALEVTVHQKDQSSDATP

B1: KWAR23 (antibody, from another filing, V domains shown)
VH: EVQLQQSGAELVKPGASVKLSCTASGFNIKDYYIHWVQQRTEQGLEWIGRIDPEDGETKYAPKFQDKATITADTSSNTAYLHLSSLTSEDTAVYYCARWGAYWGQGTLVTVSS
VL: QIVLTQSPAIMSASPGEKVTLTCSASSSVSSSYLYWYQQKPGSSPKLWIYSTSNLASGVPARFSGSGSGTSYSLTISSMEAEDAASYFCHQWSSYPRTFGAGTKLELK
SIRPa/SIRPg亲和力比值: < 1
